# Source: patent US20230399394A1 (SUNSHINE GUOJIAN PHARMACEUTICAL SHANGHAI, published 2023)
# B1: 864F3-Hu4 (antibody, human IgG4 S228P, kappa, V domains shown)
# VH: QVQLQESGPGLVKPSETLSLTCTVSGFSLSKYGVHWIRQPPGKGLEWIGVLRAGGTISYNSALMSRVTISEDISKSQVSLKLSSVTAADTAVYYCARDHYYYSSFGGFASWGQGTLVTVSS
# VL: DIQMTQSPSSLSASVGDRVTITCLASQTIATWLAWYQQKPGKSPKLLIYAATRLADGVPSRFSGSGSGTDFTLTISSLQPEDFATYYCQQLYNTPYTFGQGTKVEIKR
# notes: Humanized; also called humanized antibody 864F3-Hu4
# B2: 864F3-ch2 (antibody, human IgG4 S228P, kappa, V domains shown)
# VH: QVHLKESGPGLVAPSQSLSITCNVSGFSLSKYGVHWIRQTPGRGLDWLGVLRAGGTISYNSALMSRLSISEDISKSQVFLKMNDLQTDDSAIYFCARDHYYYSSFGGFASWGQGTLVTVSA
# VL: DIQMTQSPASQSASLGESVTITCLASQTIATWLAWYQQKPGKSPQLLIYAATRLADGVPSRFSGSGSGTEFSFKISSLQAEDFVIYYCQQLYNTPYTFGGGTKLEIKR
# notes: Chimeric: human IgG4 (S228P) and human kappa constant regions; also called chimeric antibody 864F3-ch2
# Experiments:
# Human IL-33-his [1] = target: T1, Human IL-33-his (human, UniProt O95760 112-270, biotinylated with EZ-Link NHS-Biotin where used as IL-33-his-biotin); assay: cell-based or functional assay
# T1 sequence: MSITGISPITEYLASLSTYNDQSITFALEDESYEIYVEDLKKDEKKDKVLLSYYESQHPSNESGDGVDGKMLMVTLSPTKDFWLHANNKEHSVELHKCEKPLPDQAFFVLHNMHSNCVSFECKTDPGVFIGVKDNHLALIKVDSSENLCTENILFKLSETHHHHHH
# Human IL-33-his [2] = target: T1, Human IL-33-his; assay: ELISA as Example 9, IL-33-his-biotin on streptavidin plate
# Human IL-33-his [3] = target: T1, Human IL-33-his; assay: competition ELISA as Example 10, ST2-Fc on plate; competitor ST2-Fc
# Description: (§1) ST2-Fc protein was diluted to 1 μg/mL with ELISA coating solution to coat ELISA plate with 100 μL/well. The plate was placed in a wet box at 4° C. for 16 h for coating. The ELISA plate was washed 3 times with PBST, and then was blocked with 2% BSA prepared in PBS at 200 μL/well at room temperature for 2 h. The plate was washed once with PBST, and was patted dry to remove the excess blocking solution. Each monoclonal antibody was diluted with 1% BSA prepared in PBST in a 3-fold gradient. The highest concentration of antibody was 10 μg/mL, and the antibody was diluted for 11 gradients. The diluted antibody was mixed 1:1 with 10 ng/ml IL-33-his-biotin, and then the mixture was added into the ELISA well at 100 μL/well. The plate was incubated at room temperature for 1 h. Each concentration was added to duplicate wells in parallel (maximum final concentration of antibody was […], final concentration of IL-33-his-biotin was 5 ng/mL). Unbound or non-specifically bound primary antibodies were washed out. According to the instructions of the antibody, HRP labeled streptavidin secondary antibody was diluted to an appropriate concentration with antibody diluent solution, then it was added to ELISA plate with 100 μL/well, and was incubated at room temperature for 1 h. The ELISA plate was washed with PBST for 5 times, and was patted dry on absorbent paper to remove excess liquid. TMB developing solution was added with 100 μL/well for development to an appropriate degree. 2M H₂SO₄ was added with 70 μL/well to terminate development, and the absorbance was measured at 450 nm on a multifunctional microplate reader. The data were analyzed.
# The blocking effect of the above humanized antibodies on the binding of IL-33 to its receptor ST2 was determined by the ELISA method, and the relevant experimental methods were referred to Example 10.
# Human IL-33-his [4] = target: T1, Human IL-33-his; assay: SPR Biacore 8K as Example 14, antibody captured, antigen as analyte
# Description: (§2) A chip with covalently coupled Protein A/G (purchased from GE Healthcare, catalog number BR-1005-30) was used to capture each antibody to be tested, and the relevant operating parameters were as follows: The antibody concentration was […], the contact time was 75 s, the flow rate was […], and the regeneration contact time was 30 s. The IL-33-his antigen was diluted with HBS-EP pH7.4 buffer solution (purchased from GE Healthcare, catalog number BR-1006-69). The maximum concentration was 50 nM, and diluted to 0.39 nM by two-fold dilution. Duplicate wells and 0 concentration point well were set, and 6M guanidine hydrochloride solution was used as the regeneration buffer. The sample was injected on Biacore 8K according to the following parameters, the binding time was 180 s, the dissociation time was 900 s, the flow rate was 30 μL/min, and the regeneration contact time was 30 s. After running, Biacore 8K Evaluation Software was used to analyze the data according to the “1:1 binding kinetics model”, and the binding kinetics parameters of each antibody to IL-33 were obtained.
# (§3) The experimental methods were referred to Example 14, in which the antigens cynomolgus IL-33 protein (purchased from Sino catalog number 90912-CNAE) and mouse IL-33 protein (purchased from R&D, 3626-ML-010/CF) were used, and human IL-33 protein was used as the control. Both 864F3-Hu4 and 874F7-Hu1 cross-react with cynomolgus IL-33 protein, and are consistent with the characteristics of each antibody binding to human IL-33 protein.
# Cynomolgus IL-33-his = target: T2, Cynomolgus IL-33-his (cynomolgus, UniProt A0A2K5W3I1 112-269, biotinylated in the ELISA of Example 6); assay: as above
# T2 construct: Bought protein; also called cynomolgus IL-33 protein; Cynomolgus monkeys IL-33
# T2 sequence: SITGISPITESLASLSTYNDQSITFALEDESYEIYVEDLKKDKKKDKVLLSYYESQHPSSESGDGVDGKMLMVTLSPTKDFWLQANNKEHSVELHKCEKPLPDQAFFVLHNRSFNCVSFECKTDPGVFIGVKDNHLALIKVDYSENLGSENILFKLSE
# Description: as §2, §3
# Mouse IL-33 protein = target: T3, Mouse IL-33 protein (mouse, UniProt Q8BVZ5 109-266); assay: as above
# T3 construct: Bought protein
# T3 sequence (looked up): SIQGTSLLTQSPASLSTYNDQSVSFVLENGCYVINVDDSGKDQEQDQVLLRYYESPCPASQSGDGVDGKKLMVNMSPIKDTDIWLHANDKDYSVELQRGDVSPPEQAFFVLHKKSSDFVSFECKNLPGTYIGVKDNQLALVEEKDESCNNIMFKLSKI
# Description: as §2, §3
# Human IL-33-his [5] = target: T1, Human IL-33-his; assay: SPR Biacore 8K, antibody captured on Protein A/G chip, IL-33-his as analyte, 1:1 model
# Description: as §2
# Human IL-33-his [6] = target: T1, Human IL-33-his; assay: SPR Biacore 8K as Example 14, antibody captured, antigen as analyte; human IL-33 as the control in the cross-reactivity run of Table 3
# Description: as §2
# The experimental methods were referred to Example 14, in which the antigens cynomolgus IL-33 protein (purchased from Sino catalog number 90912-CNAE) and mouse IL-33 protein (purchased from R&D, 3626-ML-010/CF) were used, and human IL-33 protein was used as the control. […]
# Human IL-33-his [7] = target: T1, Human IL-33-his; assay: ELISA, IL-33-his-biotin on streptavidin plate, anti-human Fc detection
# Description: (§4) SA protein was diluted to 2 μg/mL to coat ELISA plate at 100 μL/well overnight at 4° C. The plate was washed with PBST (PBS containing 0.05% Tween20) for 3 times, and blocked with 2% BSA prepared in PBS at 200 μL/well, at room temperature for 2 h. After the plate was washed twice with PBST, IL-33-his-biotin protein was diluted to 1 μg/mL with 1% BSA prepared in PBST, and was added to ELISA plate at 100 μL/well. The plate was incubated at room temperature for 1 h, and each monoclonal antibody was diluted with 1% BSA prepared in PBST in a 3-fold gradient. The highest concentration of antibody was 10 μg/mL, and the antibody was diluted for 12 gradients. Each diluted monoclonal antibody was added to ELISA wells with 100 μL/well, and the plate was incubated at room temperature for 1 h. Each sample was added to duplicate wells in parallel. The plate was washed with PBST for 3 times, and HRP-anti human IgG Fc secondary antibody prepared with PBST was diluted at an appropriate ratio, and was added to ELISA wells at 100 μL/well. The plate was incubated at room temperature for 1 h. After washing with PBST for 3 times, TMB developing solution was added at 100 μL/well. When the development met expectations, 2M H₂SO₄ was added to terminate the chromogenic reaction at 70 μL/well. Each reaction solution was shaken uniformly and OD450 nm was read on a microplate reader. The data was analyzed and EC₅₀ was calculated.
# Human IL-33-his [8] = target: T1, Human IL-33-his; assay: ELISA as Example 9, IL-33-his-biotin on streptavidin plate; run with Hu3, Hu4, Hu5
# Description: as §4, with “When the development met expectations, 2M H₂SO₄ was added to terminate the chromogenic reaction at 70 μL/well.” left out
# Human IL-33-his [9] = target: T1, Human IL-33-his; assay: ELISA as Example 9, IL-33-his-biotin on streptavidin plate; run with HuG, Hu1, Hu2
# Description: as §4, with “When the development met expectations, 2M H₂SO₄ was added to terminate the chromogenic reaction at 70 μL/well.” left out
# Human IL-33-his [10] = target: T1, Human IL-33-his; assay: competition ELISA, antibody mixed with IL-33-his-biotin, ST2-Fc on plate; competitor ST2-Fc
# Description: as §1
binder,measurement,setting,value
B1,IC50 of inhibition of IFNγ secretion by NK cells induced by IL-33,Human IL-33-his [1],0.904 nM
same,IC50 of inhibition of IL-5 secretion of KU812 cells induced by IL-33,Human IL-33-his [1],27.6 nM
same,IC50 of inhibition of IL-13 secretion of KU812 cells induced by IL-33,Human IL-33-his [1],14.7 nM
same,IC50 of the inhibitory effect on IL-6 expression in HUVEC cells induced by IL-33,Human IL-33-his [1],0.073 nM
same,IC50 of the inhibitory effect on the IFN-γ secretion of PBMC induced by IL-33,Human IL-33-his [1],1.22 nM
same,EC50,Human IL-33-his [2],0.135 nM
same,IC50,Human IL-33-his [3],0.512 nM
same,koff,Human IL-33-his [4],0.000149 s⁻¹
same,kon,Human IL-33-his [4],270000 M⁻¹ s⁻¹
same,Kd,Cynomolgus IL-33-his,0.637 nM
same,koff,Cynomolgus IL-33-his,0.000245 s⁻¹
same,kon,Cynomolgus IL-33-his,385000 M⁻¹ s⁻¹
same,Kd,Mouse IL-33 protein,190 nM
same,koff,Mouse IL-33 protein,0.0205 s⁻¹
same,kon,Mouse IL-33 protein,108000 M⁻¹ s⁻¹
same,Kd,Human IL-33-his [5],1.38 nM
same,koff,Human IL-33-his [5],0.000447 s⁻¹
same,kon,Human IL-33-his [5],323000 M⁻¹ s⁻¹
same,Kd,Human IL-33-his [6],0.552 nM
B2,EC50,Human IL-33-his [7],0.173 nM
same,EC50,Human IL-33-his [8],0.124 nM
same,EC50,Human IL-33-his [9],0.169 nM
same,IC50,Human IL-33-his [10],0.58 nM
